Laboratory results taken from patent US11053304 (CENTIVAX, dated 2021).
Where two headings read alike, the source gives them in different places.

Tests used:
Assay in all cases: SPR, scFv captured via anti-V5, RBD as analyte
[1] = target: T1, SARS-CoV-2 Receptor Binding Domain (RBD) protein (SARS-CoV-2, UniProt P0DTC2 319-541)
[2] = target: SARS-CoV-1 Receptor Binding Domain (RBD) protein (SARS-CoV-1, UniProt P59594 306-527)
[3] = target: MERS Receptor Binding Domain (RBD) protein (MERS coronavirus, UniProt K9N5Q8 367-606)
[4] = target: T1, SARS-CoV-2 Receptor Binding Domain …; remark: listed apart in the source

Binder | Kd [1] [nM] | binding result [2] | binding result [3] | Kd [4] [nM] | koff [4] [s⁻¹] | kon [4] [M⁻¹ s⁻¹]
COVID19_P08_F04 (scFv, V domains shown) VH: EVQLVESGGGLVQPGGSLRLSCAASGFRFDDFGMHWYRQAPGKGLEWVSATSGGGSITYYADSVKGRFTISRDNSKNTLYLQMNSLRAEDTAVYYCVTNMDNSRDYFPHYFHDMDVWGQGTLVTVSS VL: not shown | < 50 | no binding (tested: up to 300 nM) | no binding (tested: up to 300 nM) | 2.04 | 0.00019 | 93000
COVID19_P07_G02 (scFv, V domains shown) VH: EVQLVESGGGLVQPGGSLRLSCAASGFRFNTYAMHWVRQAPGKGLEWVAVISSSGRNKFYADSVKGRFTISRDNSKNTLYLQMNSLRAEDTAVYYCVTNMDNSRDYFPHYFHDMDVWGQGTLVTVSS VL: not shown | < 50 | no binding (tested: up to 300 nM) | no binding (tested: up to 300 nM) | 4.8 | 5.7e-05 | 11900
COVID19_P19_C07 (scFv, V domains shown) VH: EVQLVESGGGLVQPGGSLRLSCAASGFPFSLYGMHWVRQAPGKGLEWVAVITSDGRSKFYADSVKGRFTISRDNSKNTLYLQMNSLRAEDTAVYYCVTNLDNSRDYFPHYFHDMDVWGQGTLVTVSS VL: not shown | < 50 | no binding (tested: up to 300 nM) | no binding (tested: up to 300 nM) | 3.6 | 5.7e-05 | 16000
COVID19_P07_D09 (scFv, V domains shown) VH: EVQLVESGGGLVQPGGSLRLSCAASGFSFSRYGMHWVRQAPGKGLEWVSGISADGGTAYYADSVKGRFTISRDNSKNTLYLQMNSLRAEDTAVYYCVTNMDNSRDYFPHYFHDMDVWGQGTLVTVSS VL: not shown | < 50 | no binding (tested: up to 300 nM) | no binding (tested: up to 300 nM) | 1.8 | 5.7e-05 | 32500
COVID19_P08_B12 (scFv, V domains shown) VH: EVQLVESGGGLVQPGGSLRLSCAASGFSFRSYGMHWVRQAPGKGLEWVAVISSDGRNKFYADSVKGRFTISRDNSKNTLYLQMNSLRAEDTAVYYCVTNFDNSRDYFPHYFHDMDVWGQGTLVTVSS VL: not shown | < 50 | no binding (tested: up to 300 nM) | no binding (tested: up to 300 nM) | 3.5 | 5.7e-05 | 16000
COVID19_P07_F02 (scFv, V domains shown) VH: EVQLVESGGGLVQPGGSLRLSCAASGFAFSNYGMHWIRQAPGKGLEWVSGIDGSGGTAHYADSVKGRFTISRDNSKNTLYLQMNSLRAEDTAVYYCVTNMDNSRDYFPHYFHDMDVWGQGTLVTVSS VL: not shown | < 50 | no binding (tested: up to 300 nM) | no binding (tested: up to 300 nM) | 10.1 | 0.00018 | 17800
